Measurements published in article PMC2692298.

The substances below were run against CXCR4 on THP-1 cells (human (endogenous in THP-1)) (UniProt P61073).
CXCR4 on THP-1 cells (human (endogenous in THP-1)), sequence (P61073 whole entry): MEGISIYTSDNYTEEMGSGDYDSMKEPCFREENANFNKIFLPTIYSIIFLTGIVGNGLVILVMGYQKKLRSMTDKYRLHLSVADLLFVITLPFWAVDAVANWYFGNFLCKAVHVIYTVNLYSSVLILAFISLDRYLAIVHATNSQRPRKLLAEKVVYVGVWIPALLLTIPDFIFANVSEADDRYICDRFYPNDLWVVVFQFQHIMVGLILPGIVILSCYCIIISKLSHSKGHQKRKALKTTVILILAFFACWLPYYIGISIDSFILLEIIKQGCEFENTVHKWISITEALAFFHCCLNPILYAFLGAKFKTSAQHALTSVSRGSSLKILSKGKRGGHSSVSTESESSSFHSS

SDF-1 Val39Ala, sequence (P48061 22-93 V39A): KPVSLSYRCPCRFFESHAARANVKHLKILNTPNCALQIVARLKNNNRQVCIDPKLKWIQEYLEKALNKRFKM
SDF-1 Lys64Ala, sequence (P48061 22-93 K64A): as the sequence (P48061 22-93 V39A) above, with A18V, K43A counted along it
SDF-1 Glu60Ala, sequence (P48061 22-93 E81A): as the sequence (P48061 22-93 V39A) above, with A18V, E60A counted along it
SDF-1 Lys27Glu, sequence (P48061 22-93 K48E): as the sequence (P48061 22-93 V39A) above, with A18V, K27E counted along it
SDF-1 Val49Ala, sequence (P48061 22-93 V70A): as the sequence (P48061 22-93 V39A) above, with A18V, V49A counted along it
SDF-1 Lys27Ala, sequence (P48061 22-93 K48A): as the sequence (P48061 22-93 V39A) above, with A18V, K27A counted along it
SDF-1 Arg47Ala, sequence (P48061 22-93 R68A): as the sequence (P48061 22-93 V39A) above, with A18V, R47A counted along it
SDF-1 Glu63Ala, sequence (P48061 22-93 E84A): as the sequence (P48061 22-93 V39A) above, with A18V, E63A counted along it
SDF-1 Arg47Glu, sequence (P48061 22-93 R68E): as the sequence (P48061 22-93 V39A) above, with A18V, R47E counted along it

| Substance | EC50 of Ca2+ mobilization in THP-1 cells |
| --- | --- |
| SDF1(H25R) (from UniProt P48061 22-93) (ligand) | 5.1 nM |
| SDF-1 Arg20Ala (from UniProt P48061 22-93) (ligand) | 4.3 nM |
| SDF-1 Arg41Ala (from UniProt P48061 22-93) (ligand) | 4.3 nM |
| SDF-1 Arg47Ala (from UniProt P48061 22-93) (ligand) | 14.1 nM |
| SDF-1 Arg47Glu (from UniProt P48061 22-93) (ligand) | 654 nM |
| SDF-1 Glu60Ala (from UniProt P48061 22-93) (ligand) | 4.1 nM |
| SDF-1 Glu63Ala (from UniProt P48061 22-93) (ligand) | 3.7 nM |
| SDF-1 Lys27Ala (from UniProt P48061 22-93) (ligand) | 10.1 nM |
| SDF-1 Lys27Glu (from UniProt P48061 22-93) (ligand) | 16.8 nM |
| SDF-1 Lys64Ala (from UniProt P48061 22-93) (ligand) | 5 nM |
| SDF-1 Val39Ala (from UniProt P48061 22-93) (ligand) | 27.1 nM |
| SDF-1 Val49Ala (from UniProt P48061 22-93) (ligand) | 8.6 nM |
| stromal cell derived factor-1 (SDF-1, also known as CXCL12), wild type (from UniProt P48061 22-93) (ligand) | 3.6 nM |

Target: CXCR4 on THP-1 cells (human (endogenous in THP-1)) (UniProt P61073)
Remark: another data set of the same source

| Substance | EC50 of Ca2+ mobilization in THP-1 cells |
| --- | --- |
| SDF1(L36C/A65C), covalently-locked symmetric dimer (from UniProt P48061 22-93) (ligand) | 12.9 nM |
